Consider one substance from patent publication US20220267412A1.

The target of this test is porcine pancreatic elastase (porcine) (UniProt P00772). The experiment in a line: cell-based or functional assay.
Chain of porcine pancreatic elastase (porcine) (P00772 27-266): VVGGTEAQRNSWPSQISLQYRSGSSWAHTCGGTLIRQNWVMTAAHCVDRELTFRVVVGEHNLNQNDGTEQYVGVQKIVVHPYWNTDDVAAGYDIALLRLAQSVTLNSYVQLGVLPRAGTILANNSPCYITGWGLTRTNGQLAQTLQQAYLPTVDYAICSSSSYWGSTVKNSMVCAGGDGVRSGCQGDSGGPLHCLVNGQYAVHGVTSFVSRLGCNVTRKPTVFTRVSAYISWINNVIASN

“human serpin B1 C344S variant (from UniProt P30740 1-379)”: the amount of purified protein to fully inhibit PPE (typically 160 nM, 200 uL, +40 mM 2-ME) worked out at 13 µg.
